According to paper PMC2651774:

Biological target: GST-CR3 (HAdV-5 E1A residues 139–204 fused to GST) (human adenovirus type 5 (HAdV-5)) (UniProt P03255)
Test: pull-down

Full-length, purified FLAG-tagged CBP (CREB-binding protein), Q92793 1-2442 (natural protein), sequence (Q92793 whole entry): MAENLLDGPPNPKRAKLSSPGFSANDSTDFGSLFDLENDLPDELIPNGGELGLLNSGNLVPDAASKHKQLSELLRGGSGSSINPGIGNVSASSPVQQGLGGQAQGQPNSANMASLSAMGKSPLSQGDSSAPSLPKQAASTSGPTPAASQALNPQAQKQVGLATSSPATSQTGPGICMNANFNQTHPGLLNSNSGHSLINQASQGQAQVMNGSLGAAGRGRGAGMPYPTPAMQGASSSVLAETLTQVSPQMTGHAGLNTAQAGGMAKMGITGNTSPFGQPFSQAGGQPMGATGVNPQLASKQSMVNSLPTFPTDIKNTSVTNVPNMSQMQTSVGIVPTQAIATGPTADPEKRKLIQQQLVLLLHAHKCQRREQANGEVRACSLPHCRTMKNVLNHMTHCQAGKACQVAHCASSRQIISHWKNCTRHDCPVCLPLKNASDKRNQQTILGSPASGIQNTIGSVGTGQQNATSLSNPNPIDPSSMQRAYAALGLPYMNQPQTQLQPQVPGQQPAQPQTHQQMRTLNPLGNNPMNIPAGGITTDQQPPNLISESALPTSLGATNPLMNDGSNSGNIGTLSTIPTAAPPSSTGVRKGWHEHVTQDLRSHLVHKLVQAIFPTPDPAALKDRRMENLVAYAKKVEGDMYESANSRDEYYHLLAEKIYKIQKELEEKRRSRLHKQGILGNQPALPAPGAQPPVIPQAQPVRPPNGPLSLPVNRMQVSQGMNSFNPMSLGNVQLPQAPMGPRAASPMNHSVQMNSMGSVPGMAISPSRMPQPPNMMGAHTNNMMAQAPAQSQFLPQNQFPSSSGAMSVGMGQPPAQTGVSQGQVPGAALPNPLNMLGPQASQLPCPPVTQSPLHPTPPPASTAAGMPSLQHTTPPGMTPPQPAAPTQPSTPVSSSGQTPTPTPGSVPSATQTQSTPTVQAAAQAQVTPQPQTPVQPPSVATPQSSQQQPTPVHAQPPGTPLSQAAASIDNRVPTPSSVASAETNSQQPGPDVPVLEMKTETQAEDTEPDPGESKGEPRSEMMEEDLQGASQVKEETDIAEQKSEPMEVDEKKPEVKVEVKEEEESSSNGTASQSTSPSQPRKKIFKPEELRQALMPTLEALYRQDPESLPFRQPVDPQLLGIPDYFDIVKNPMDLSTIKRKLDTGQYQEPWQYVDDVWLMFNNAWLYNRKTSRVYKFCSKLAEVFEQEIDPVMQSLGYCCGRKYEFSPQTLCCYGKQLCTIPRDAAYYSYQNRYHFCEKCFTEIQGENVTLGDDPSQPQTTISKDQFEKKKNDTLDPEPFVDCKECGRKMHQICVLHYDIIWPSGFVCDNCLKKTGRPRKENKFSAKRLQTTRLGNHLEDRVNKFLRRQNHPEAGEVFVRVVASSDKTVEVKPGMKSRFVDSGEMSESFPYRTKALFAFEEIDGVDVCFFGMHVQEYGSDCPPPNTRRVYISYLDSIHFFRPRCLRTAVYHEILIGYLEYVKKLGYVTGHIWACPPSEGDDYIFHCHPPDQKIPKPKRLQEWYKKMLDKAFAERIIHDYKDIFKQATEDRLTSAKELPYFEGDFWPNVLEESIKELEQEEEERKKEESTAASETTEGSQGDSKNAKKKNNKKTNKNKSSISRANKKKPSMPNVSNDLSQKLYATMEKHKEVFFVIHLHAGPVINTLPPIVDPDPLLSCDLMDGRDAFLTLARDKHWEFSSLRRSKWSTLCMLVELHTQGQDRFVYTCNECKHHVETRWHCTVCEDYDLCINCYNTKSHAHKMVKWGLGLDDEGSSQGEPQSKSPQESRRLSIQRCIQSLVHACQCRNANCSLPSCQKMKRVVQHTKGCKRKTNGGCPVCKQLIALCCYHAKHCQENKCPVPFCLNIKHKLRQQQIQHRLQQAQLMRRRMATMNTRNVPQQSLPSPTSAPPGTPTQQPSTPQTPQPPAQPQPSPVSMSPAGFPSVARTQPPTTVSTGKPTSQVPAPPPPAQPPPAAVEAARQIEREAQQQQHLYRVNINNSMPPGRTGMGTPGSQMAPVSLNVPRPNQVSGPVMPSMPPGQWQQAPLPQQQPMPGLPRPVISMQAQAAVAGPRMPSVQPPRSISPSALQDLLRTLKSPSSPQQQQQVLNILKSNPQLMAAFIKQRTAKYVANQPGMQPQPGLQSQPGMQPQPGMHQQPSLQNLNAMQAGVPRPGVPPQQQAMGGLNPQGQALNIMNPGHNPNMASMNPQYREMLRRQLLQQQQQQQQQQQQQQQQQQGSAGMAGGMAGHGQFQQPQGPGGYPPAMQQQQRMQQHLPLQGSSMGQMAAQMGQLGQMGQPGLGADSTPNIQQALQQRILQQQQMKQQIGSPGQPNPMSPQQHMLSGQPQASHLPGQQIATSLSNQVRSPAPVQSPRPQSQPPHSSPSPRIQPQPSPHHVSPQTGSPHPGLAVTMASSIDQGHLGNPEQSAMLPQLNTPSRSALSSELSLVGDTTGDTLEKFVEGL
GST-CR3 (HAdV-5 E1A residues 139–204 fused to GST) (human adenovirus type 5 (HAdV-5)), sequence (P03255 139-204): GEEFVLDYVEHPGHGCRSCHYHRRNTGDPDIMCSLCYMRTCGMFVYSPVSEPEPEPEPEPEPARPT

Question: Which reduction of the interaction on addition of HeLa total cellular extract does the source give for “Full-length, purified FLAG-tagged CBP (CREB-binding protein), Q92793 1-2442 (natural protein)” here?
Answer: The reduction of the interaction on addition of HeLa total cellular extract was 50%.
